In publication PMC12859064:

Target: Flag-Axin1 (mouse)
Experiment: SPR; BIAcore 8K, CM5 chip; Flag-Axin1 immobilised by amine coupling (20 μg/mL, sodium acetate pH 4.5); analytes 25-400 nM, 30 μL/min, 120 s association, 300 s dissociation; step of the Axin1 self-association not told

Kd | Molecule
147 nM | Flag-Axin1 (natural protein)
37.8 nM | Flag-TRIM15 (natural protein) MPATPSLKVVHELPACTLCAGPLEDAVTIPCGHTFCRLCLPALSQMGAQSSGKILLCPLCQEEEQAETPMAPVPLGPLGETYCEEHGEKIYFFCENDAEFLCVFCREGPTHQAHTVGFLDEAIQPYRDRLRSRLEALSTERDEIEDVKCQEDQKLQVLLTQIESKKHQVETAFERLQQELEQQRCLLLARLRELEQQIWKERDEYITKVSEEVTRLGAQVKELEEKCQQPASELLQDVRVNQSRCEMKTFVSPEAISPDLVKKIRDFHRKILTLPEMMRMFSENLAHHLEIDSGVITLDPQTASRSLVLSEDRKSVRYTRQKKSLPDSPLRFDGLPAVLGFPGFSSGRHRWQVDLQLGDGGGCTVGVAGEGVRRKGEMGLSAEDGVWAVIISHQQCWASTSPGTDLPLSEIPRGVRVALDYEAGQVTLHNAQTQEPIFTFTASFSGKVFPFFAVWKKGSCLTLKG
